Residues, ends and D or L forms follow the SMILES beside them.

For assay [1], the target named is T1, IKKα(10-667) EE homodimer (Homo sapiens, UniProt O15111, S176E/S180E).
T1 construct: an equivalent construct of the IKKα homodimer (i.e. IKKα(10-667) S176E/S180E, named IKKα(10-667) EE hereafter); 6×His (followed by TEV site) (N, cleaved yes); made in house; host or cells: Sf21 insect cells (baculovirus)
T1 sequence (O15111 10-667 S176E/S180E): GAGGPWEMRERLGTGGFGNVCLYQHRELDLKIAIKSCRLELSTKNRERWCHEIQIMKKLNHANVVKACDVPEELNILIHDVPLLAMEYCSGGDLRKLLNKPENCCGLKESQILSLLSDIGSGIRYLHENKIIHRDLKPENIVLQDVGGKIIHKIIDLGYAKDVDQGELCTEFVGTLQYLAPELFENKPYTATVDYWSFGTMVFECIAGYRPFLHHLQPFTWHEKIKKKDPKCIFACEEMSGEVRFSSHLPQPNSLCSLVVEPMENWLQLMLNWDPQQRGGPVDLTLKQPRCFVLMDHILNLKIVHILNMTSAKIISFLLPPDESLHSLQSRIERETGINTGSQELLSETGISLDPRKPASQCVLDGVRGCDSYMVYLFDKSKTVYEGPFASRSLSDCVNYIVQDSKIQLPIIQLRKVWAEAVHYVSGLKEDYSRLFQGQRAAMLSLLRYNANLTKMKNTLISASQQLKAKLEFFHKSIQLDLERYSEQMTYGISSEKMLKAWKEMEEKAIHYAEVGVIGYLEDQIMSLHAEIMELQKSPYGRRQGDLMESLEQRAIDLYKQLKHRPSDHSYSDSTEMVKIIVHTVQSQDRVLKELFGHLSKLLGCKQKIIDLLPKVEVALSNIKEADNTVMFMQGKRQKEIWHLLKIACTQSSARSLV
Description: Isothermal titration calorimetry (ITC) of peptide binding to IKKα homodimer. The following applies: 25° C.; for N (binding stoichiometry of IKKα: pep): 1:1 binding model; for TΔS / ΔG / ΔH: IKKα. The method, then:
All experiments were performed in ITC buffer (20 mM HEPES pH 8.0, 150 mM NaCl, 1 mM TCEP) unless otherwise stated. Purified IKKα(10-667) EE and IKKβ(1-669) EE protein samples were dialyzed overnight against ITC buffer at 4° C. Just before the ITC experiments, IKKα or IKKβ samples were concentrated, incubated at room temperature for 30 minutes and centrifuged at 11000 g to remove eventual precipitate. The final concentrations of IKKα and IKKβ in the sample cell varied between 22 and 50 μM depending on the measurement. HPLC purified synthetic peptides (IκBα pep) comprising residues 297-317 of IκBα were further desalted using a Nap5 (GE Healthcare, #17-0853-01) column equilibrated in milliQ water, lyophilized and then resuspended in ITC buffer. The concentration of peptides in the syringe varied between 220 and 975 μM depending on the measurement.
All ITC measurements were performed using a PEAQ-ITC MALVERN instrument. The titration parameters were set as following: temperature 25° C., reference power 10 μcal/s, feedback=high, stirring speed 750 RPM, initial delay 60 s, first injection 0.4 μl in 0.8 s and the remaining 19 injections were 2 μL in 4 s with 120 s of spacing. The data were fitted to a 1:1 binding model. All data were processed using NITPIC software and global fitting of two datasets was carried out using SEDPHAD.
To evaluate binding affinities, isothermal titration calorimetry (ITC) experiments were performed using a synthetic peptide that comprises the YDDφXφ motif plus the N-terminal acidic patch (residues 297-317, named IκBα pep hereafter) and purified IKKβ(1-669) EE homodimer or an equivalent construct of the IKKα homodimer (i.e. IKKα(10-667) S176E/S180E, named IKKα(10-667) EE hereafter). […] ITC analyses on the IKKα/β heterodimer were prevented by strong aggregation propensity at the concentrations required for these experiments.
All ITC experiments were performed at 25° C. The data were fitted to a 1:1 binding model. N refers to the binding stoichiometry of IKKα/β: pep, meaning that approximately half of total IKKα/β concentration binds pep ligand in agreement with the dimer form of IKKα/β being binding competent. The values for the IKKα interaction with IRF7 pep should be regarded as estimates due to low affinity and weakly exothermic binding, and therefore high experimental error and fitting uncertainty. All data were processed using NITPIC software and global fitting of two datasets was carried out using SEDPHAD.

Assay [2] has as its target T2, IKKα(10-667) S176E/S180E homodimer, 6×His tag removed (human, UniProt O15111 10-667).
T2 construct: also called purified IKKα
T2 sequence (looked up): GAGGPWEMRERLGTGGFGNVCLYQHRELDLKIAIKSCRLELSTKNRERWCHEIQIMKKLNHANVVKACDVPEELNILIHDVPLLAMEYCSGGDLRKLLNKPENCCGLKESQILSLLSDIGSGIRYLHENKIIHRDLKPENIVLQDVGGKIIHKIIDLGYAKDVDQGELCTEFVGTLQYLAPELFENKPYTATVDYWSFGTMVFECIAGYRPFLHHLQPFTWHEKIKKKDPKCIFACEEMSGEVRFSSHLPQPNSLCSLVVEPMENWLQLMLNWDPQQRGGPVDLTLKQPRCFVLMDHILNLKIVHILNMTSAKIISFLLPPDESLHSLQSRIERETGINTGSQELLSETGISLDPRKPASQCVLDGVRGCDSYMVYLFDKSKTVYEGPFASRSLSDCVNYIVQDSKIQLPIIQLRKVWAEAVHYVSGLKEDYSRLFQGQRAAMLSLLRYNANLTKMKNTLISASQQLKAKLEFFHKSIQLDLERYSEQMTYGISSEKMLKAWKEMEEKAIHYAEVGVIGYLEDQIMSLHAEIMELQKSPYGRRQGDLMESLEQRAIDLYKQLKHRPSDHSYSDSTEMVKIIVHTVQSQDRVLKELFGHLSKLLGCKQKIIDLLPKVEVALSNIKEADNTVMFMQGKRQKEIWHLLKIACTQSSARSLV
In words: ITC, 25 °C, synthetic peptide into IKK homodimer, 1:1 model. The procedure:
(§1) All experiments were performed in ITC buffer (20 mM HEPES pH 8.0, 150 mM NaCl, 1 mM TCEP) unless otherwise stated. […] Just before the ITC experiments, IKKα or IKKβ samples were concentrated, incubated at room temperature for 30 minutes and centrifuged at 11000 g to remove eventual precipitate. The final concentrations of IKKα and IKKβ in the sample cell varied between 22 and 50 μM depending on the measurement. […] The concentration of peptides in the syringe varied between 220 and 975 μM depending on the measurement.
(§2) All ITC experiments were performed at 25° C. The data were fitted to a 1:1 binding model. […] All data were processed using NITPIC software and global fitting of two datasets was carried out using SEDPHAD.

Assay [3] concerns the target T3, IKKβ(1-669) S177E/S181E homodimer, 6×His tag removed (human, UniProt O14920 1-669).
T3 sequence (looked up): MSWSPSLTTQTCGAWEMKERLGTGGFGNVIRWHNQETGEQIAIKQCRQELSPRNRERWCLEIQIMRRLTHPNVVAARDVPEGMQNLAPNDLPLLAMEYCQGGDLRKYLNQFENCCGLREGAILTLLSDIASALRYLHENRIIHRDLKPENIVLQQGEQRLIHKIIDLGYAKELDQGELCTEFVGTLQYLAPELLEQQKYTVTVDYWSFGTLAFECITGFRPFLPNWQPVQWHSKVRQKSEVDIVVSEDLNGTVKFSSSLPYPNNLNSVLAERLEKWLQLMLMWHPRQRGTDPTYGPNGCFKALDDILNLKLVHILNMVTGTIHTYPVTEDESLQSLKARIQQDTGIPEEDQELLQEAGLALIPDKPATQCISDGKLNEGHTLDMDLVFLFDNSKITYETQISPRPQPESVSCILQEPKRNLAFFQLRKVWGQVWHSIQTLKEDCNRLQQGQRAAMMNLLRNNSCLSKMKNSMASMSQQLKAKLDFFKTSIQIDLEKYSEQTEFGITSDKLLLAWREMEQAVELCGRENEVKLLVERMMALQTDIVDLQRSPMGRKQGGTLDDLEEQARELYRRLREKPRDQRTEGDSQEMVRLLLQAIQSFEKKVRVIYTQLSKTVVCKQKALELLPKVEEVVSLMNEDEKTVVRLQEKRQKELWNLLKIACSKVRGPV
The assay is described as above. The procedure: as §1, §2

As to `CC[C@H](C)[C@H](NC(=O)[C@H](CC(=O)O)NC(=O)[C@H](CC(=O)O)NC(=O)[C@H](Cc1ccc(O)cc1)NC(=O)[C@H](CC(C)C)NC(=O)[C@H](CO)NC(=O)[C@H](CC(N)=O)NC(=O)[C@H](C)NC(=O)[C@H](CO)NC(=O)[C@H](CO)NC(=O)[C@@H](N)CC(C)C)C(=O)N[C@@H](CCC(=O)O)C(=O)N[C@@H](CS)C(=O)N[C@@H](Cc1ccccc1)C(=O)N[C@@H](CC(C)C)C(=O)N[C@@H](CCSC)C(=O)N[C@@H](CCC(=O)O)C(=O)N[C@@H](CC(C)C)C(=O)N[C@@H](CCC(=O)O)C(=O)N[C@@H](CCC(N)=O)C(=O)N1CCC[C@H]1C(=O)N[C@@H](C)C(=O)O` [IRF7 pep] (H-LSSANSLYDDIECFLMELEQPA-OH; N-terminus and C-terminus assumed), in assay [1], the “N (binding stoichiometry of IKKα: pep)” value came to 0.6, the TΔS is -1.2 kcal/mol, the ΔG is -5.5 kcal/mol and the ΔH is -6.7 kcal/mol.
With `CC[C@H](C)[C@H](NC(=O)CNC(=O)[C@H](CC(=O)O)NC(=O)[C@H](CC(C)C)NC(=O)CN)C(=O)N[C@H](C(=O)N[C@@H](CCC(=O)O)C(=O)N[C@@H](Cc1ccc(O)cc1)C(=O)N[C@@H](CC(=O)O)C(=O)N[C@@H](CC(=O)O)C(=O)N[C@@H](Cc1ccccc1)C(=O)N[C@@H](CCCCN)C(=O)N[C@@H](CC(C)C)C(=O)N[C@@H](CC(N)=O)C(=O)N[C@@H](CO)C(=O)N[C@@H](CO)C(=O)N[C@H](C(=O)N[C@H](C(=O)N[C@@H](CCC(=O)O)C(=O)N1CCC[C@H]1C(=O)N[C@@H](CCCCN)C(=O)N[C@@H](CCC(=O)O)C(=O)O)C(C)C)[C@@H](C)CC)[C@@H](C)CC` [p100 pep] (H-GLDGIIEYDDFKLNSSIVEPKE-OH; N-terminus and C-terminus assumed), in assay [1], the “N (binding stoichiometry of IKKα: pep)” value is 0.60, the TΔS was -5.56 kcal/mol, the ΔG is -6.77 kcal/mol and the ΔH was -12.3 kcal/mol.
Usually Kd stands for a measure of binding affinity in units of concentration. Read a high Kd as lower affinity. Take GLDGIIEYDDFKLNSSIVEPKE [synthetic p100 pep]: in assay [2], binding was characterised by a dissociation constant (Kd) of 11 µM, the “N (binding stoichiometry)” value stood at 0.6, the TΔS is -5.56 kcal/mol and the ΔG is -6.77 kcal/mol. The ΔH in assay [2] was -12.3 kcal/mol.

B1: synthetic IκBα pep wt (residues 297-317 of IκBα) (peptide)
peptide: EFTEDELPYDDCVFGGQRLTL
notes: HPLC purified synthetic peptide; also called IkBα pep wt; P1
For B1, in assay [2], the “N (binding stoichiometry)” value turned out to be 0.62, the TΔS is -8.35 kcal/mol, the ΔG was -6.88 kcal/mol and the ΔH was -15.2 kcal/mol. For the same molecule, in assay [3], the “N (binding stoichiometry)” value was 0.58, the TΔS was -9.78 kcal/mol, the ΔG was -6 kcal/mol and the ΔH was -15.8 kcal/mol.
